Test results as given in patent publication US20240336672A1 (INSTITUT PASTEUR, published 2024).

Key:
[1] = molecular target: T1, CoV-NL63 Spike ectodomain (NL63-CoV, UniProt Q6Q1S2 19-1291); assay: ELISA, coated antigen; note: test concentration or dose not given here
T1 sequence: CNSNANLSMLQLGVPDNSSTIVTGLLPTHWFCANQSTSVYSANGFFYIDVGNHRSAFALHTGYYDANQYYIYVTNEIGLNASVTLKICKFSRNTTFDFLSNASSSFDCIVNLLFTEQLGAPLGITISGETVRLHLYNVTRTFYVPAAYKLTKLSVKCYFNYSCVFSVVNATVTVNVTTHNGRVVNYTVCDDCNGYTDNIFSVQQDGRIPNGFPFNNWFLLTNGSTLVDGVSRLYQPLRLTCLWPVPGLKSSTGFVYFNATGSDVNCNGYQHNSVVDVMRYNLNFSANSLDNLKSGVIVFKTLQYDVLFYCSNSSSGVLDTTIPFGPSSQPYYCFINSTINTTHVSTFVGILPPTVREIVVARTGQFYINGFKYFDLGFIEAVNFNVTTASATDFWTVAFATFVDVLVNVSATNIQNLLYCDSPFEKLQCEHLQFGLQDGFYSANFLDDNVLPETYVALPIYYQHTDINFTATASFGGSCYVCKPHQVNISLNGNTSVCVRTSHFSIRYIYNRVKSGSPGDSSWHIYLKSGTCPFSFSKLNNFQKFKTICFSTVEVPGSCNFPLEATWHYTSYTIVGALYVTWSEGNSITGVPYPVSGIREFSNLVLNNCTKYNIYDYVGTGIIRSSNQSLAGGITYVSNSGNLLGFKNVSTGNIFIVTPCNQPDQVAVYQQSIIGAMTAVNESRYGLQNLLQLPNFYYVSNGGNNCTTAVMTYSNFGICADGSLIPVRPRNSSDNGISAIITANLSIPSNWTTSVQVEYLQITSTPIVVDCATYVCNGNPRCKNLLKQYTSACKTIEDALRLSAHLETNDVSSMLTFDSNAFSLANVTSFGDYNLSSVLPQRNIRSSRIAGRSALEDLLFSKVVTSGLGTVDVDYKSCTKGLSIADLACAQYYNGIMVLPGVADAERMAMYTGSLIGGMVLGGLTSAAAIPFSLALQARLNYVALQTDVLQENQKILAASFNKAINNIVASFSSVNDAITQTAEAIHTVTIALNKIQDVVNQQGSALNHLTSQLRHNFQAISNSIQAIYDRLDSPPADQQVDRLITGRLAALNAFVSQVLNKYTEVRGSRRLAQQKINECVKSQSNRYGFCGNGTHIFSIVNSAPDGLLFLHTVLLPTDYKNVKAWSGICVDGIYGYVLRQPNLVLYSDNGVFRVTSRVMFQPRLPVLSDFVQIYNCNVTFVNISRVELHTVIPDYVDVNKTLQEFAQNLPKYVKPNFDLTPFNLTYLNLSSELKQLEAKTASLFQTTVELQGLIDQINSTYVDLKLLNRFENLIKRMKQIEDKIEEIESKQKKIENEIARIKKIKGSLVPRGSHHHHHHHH

[2] = molecular target: T2, CoV-HKU1 Spike ectodomain (HKU1-CoV, UniProt Q0ZME7 14-1276); assay: ELISA, coated antigen; note: test concentration or dose not given here
T2 chain: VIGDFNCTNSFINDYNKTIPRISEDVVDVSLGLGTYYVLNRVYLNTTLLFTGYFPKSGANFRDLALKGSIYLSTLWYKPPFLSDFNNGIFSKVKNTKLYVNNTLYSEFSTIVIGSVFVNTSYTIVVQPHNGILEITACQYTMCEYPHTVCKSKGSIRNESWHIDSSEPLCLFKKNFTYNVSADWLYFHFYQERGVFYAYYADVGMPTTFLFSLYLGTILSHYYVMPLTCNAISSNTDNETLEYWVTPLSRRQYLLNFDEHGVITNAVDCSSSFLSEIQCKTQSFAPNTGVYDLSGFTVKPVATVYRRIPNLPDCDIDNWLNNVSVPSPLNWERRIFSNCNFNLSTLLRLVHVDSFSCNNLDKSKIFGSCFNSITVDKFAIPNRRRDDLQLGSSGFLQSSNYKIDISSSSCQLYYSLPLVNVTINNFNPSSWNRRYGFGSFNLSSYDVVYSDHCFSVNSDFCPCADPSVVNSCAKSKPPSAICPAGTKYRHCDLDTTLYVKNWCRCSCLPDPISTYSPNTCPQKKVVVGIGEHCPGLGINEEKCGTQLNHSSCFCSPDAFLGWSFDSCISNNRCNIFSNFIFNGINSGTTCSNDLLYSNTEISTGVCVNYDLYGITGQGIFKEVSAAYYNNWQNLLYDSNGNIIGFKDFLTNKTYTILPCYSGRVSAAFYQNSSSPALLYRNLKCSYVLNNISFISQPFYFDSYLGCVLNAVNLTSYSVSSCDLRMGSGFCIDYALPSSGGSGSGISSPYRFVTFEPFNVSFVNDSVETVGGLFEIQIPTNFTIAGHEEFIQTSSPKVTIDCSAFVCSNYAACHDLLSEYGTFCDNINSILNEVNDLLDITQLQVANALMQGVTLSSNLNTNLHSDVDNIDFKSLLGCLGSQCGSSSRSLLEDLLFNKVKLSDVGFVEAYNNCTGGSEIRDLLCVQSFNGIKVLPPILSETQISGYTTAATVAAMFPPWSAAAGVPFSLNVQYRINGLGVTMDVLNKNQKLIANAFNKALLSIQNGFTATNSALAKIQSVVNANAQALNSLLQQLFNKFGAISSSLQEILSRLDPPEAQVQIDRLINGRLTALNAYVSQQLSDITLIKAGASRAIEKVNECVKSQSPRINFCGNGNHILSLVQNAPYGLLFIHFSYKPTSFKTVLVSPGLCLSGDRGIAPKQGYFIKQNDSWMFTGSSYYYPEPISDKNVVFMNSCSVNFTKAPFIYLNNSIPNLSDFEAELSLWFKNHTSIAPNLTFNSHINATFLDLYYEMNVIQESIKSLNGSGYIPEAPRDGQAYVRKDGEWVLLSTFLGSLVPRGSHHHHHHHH

B1: Cv2.1169 (recombinant human IgG1) (antibody)
heavy: QVQLVQSGPEVKKPGTSVKVSCKASGFTFTTSAVQWVRQARGQRLEWIGWIVVGSGNTNYAQKFQERVTITRDMSTTTAYMELSSLRSEDTAVYYCAAPYCSGGTCLDGFDIWGQGTMVTVSSASTKGPSVFPLAPSSKSTSGGTAALGCLVKDYFPEPVTVSWNSGALTSGVHTFPAVLQSSGLYSLSSVVTVPSSSLGTQTYICNVNHKPSNTKVDKKVEPKSCDKTHTCPPCPAPELLGGPSVFLFPPKPKDTLMISRTPEVTCVVVDVSHEDPEVKFNWYVDGVEVHNAKTKPREEQYNSTYRVVSVLTVLHQDWLNGKEYKCKVSNKALPAPIEKTISKAKQPREPQVYTLPPSRDELTKNQVSLTCLVKGFYPSDIAVEWESNGQPENNYKTTPPVLDSDGSFFLYSKLTVDKSRWQQGNVFSCSVMHEALHNHYTQKSLSLSPGK
light: not shown
notes: also called Cv2.1169 IgG
Question: How did the “ELISA OD” value [1] turn out when B1 was run?
Answer: 0.1 OD

Question: What about the “ELISA OD” value [2] of the same binder?
Answer: 0.1 OD

B2: Cv2.3194 (recombinant human IgG1) (antibody, V domains shown)
VH: EVQLVESGGGLIQPGGSLRLSCAASGITVTSNYMSWVRQAPGKGLEWVSVIYPGGSTFYADSVKGRFTISRDNSKNTLYLQMNSLRAEDTAVYYCARDLVVYGMDVWGQGTTVTVSS
VL: EIVLTQSPGTLSLSPGERATLSCRASQSVSSSYLAWYQQKPGQAPRLLIYGASSRATGIPGRFSGSGSGTDFTLTISRLEPEDFAIYYCQQGVTFGGGTKVEIKR
Question: With B2 as the binder, how does the “ELISA OD” value [1] read?
Answer: 0.1 OD

Question: And the “ELISA OD” value [2]?
Answer: 0.1 OD

B3: Cv2.3235 (recombinant human IgG1) (antibody, V domains shown)
VH: EVQLVESGGGLIQPGGSLRLSCAASGFTVSRNYMSWVRQAPGKGLEWVSVIYSGGSTFYADSVKGRFTISRDNSKNTLYLQMNSLRAEDTAVYYCARDGDYYGMDVWGQGTTVTVSS
VL: DIQMTQSPSFLSASVGDRVTITCRASQGISSFLAWYQQKPGKAPKLLIYGASTLQSGVTSRFSGSGSGTEFTLTISSLQPEDFATYYCQRLDSYPPITFGQGTRLEIKR
Question: With B3 as the binder, how does the “ELISA OD” value [1] read?
Answer: 0.2 OD

Question: And the “ELISA OD” value [2]?
Answer: 0.2 OD

B4: Cv2.5213 (recombinant human IgG1) (antibody, V domains shown)
VH: EVQLVESGGGLIQPGGSLRLSCAASGFTVSSNYMSWVRQAPGKGLEWVSLIYSGGSTYYADSVKGRFTISRDNSKNTLYLQMNSLRAEDTAVYYCARDLNYYGMDVWGQGATVTVSS
VL: DIQMTQSPSSLSASVGDRVTITCRASQGISSYLAWYQQKPGKAPKLLIYAASTLQSGVPSRFSGSGSGTDFTLTISSLQPEDFATYYCQQLDSYSPFTFGPGTKVDIKR
Question: Which results are given for B4?
Answer: ELISA OD [1]: 0.1 OD; ELISA OD [2]: 0.1 OD

B5: Cv2.1353 (recombinant human IgG1) (antibody, V domains shown)
VH: EVQLVESGGGLVQPGGSLRLSCAASGVTVSSNYMNWVRQAPGKGLEWVSVIYSGGSTFYADSVKGRFIISRDNSKNTLYLQMNSLKTEDTAVYYCARDLGPMGFDIWGQGTMVTVSS
VL: DIQMTQSPSFLSASVGDRVTITCRASQGISSYLAWYQQKPGKAPKLLIYAASTLQSGVPSRFSGSGSGTEFTLTISSLQPEDFATYYCQQLNSDPPVTFGPGTKVDIKR
Question: Which results are given for B5?
Answer: ELISA OD [1]: 0.1 OD; ELISA OD [2]: 0.1 OD
